{"source": "patent US20030157553A1", "about": "“Methods of assaying for G protein-coupled receptor ligands and modulators” (priority 2000, published 2003)", "key": {"β2AR [1]": {"test_system": "β2AR", "test": "Direct binding assay of in vitro translated tritiated arrestins to purified β2AR reconstituted into phospholipid vesicles", "conditions": "unphosphorylated β2AR, activated by 0.1 mM agonist isoproterenol; FIG. 1A", "excerpt": "(§1) Mutagenesis and Biochemical Characterization of β-Arrestins—Mutations Arg169→Glu (CGG→GAG), Gln394→Ter (CAA→TAA), and Asp383→Ter (GAT→TAG) were introduced by polymerase chain reaction in β-arrestin construct pBARR (Gurevich et al. (1995) J. Biol. Chem. 270:720-731), that was used for in vitro transcription and translation, as described (Gurevich et al. (1995), supra). NcoI/HindIII 1404-base pair open reading frame was then subdloned into appropriately digested Escherichia coliexpression vector pTrcHisB (Invitrogen). […]\nDirect Binding Assay—In vitro translated tritiated arrestins (50 fmol) were incubated in 50 mM Tris-HCl, pH 7.5, 0.5 mM MgCl2, 1.5 mM dithiothreitol, 50 mM potassium acetate with 7.5 pmol of the various functional forms of rhodopsin or with P-β2AR or β2AR (100 fmol/assay) in a final volume of 50 μl for 5 min at 37° C. in room light (rhodopsin) or for 60 min at 30° C. in the presence of 0.1 mM -agonist isoproterenol. […] Nonspecific binding determined in the presence of 0.3 μg of liposomes was subtracted."}, "β2AR [2]": {"test_system": "β2AR", "test": "Agonist affinity shift assay ([125I] iodopindolol), formation of high agonist affinity complex (HAC)", "type": "binding", "conditions": "1 μM arrestin, FIG. 2A", "excerpt": "as §1\nAgonist Affinity ShiftAssay—P-β2AR or β2AR (10-15 fmol/assay) was incubated in 0.25 ml of 10 mM Tris-HCl, pH 7.4, 100 mM NaCl (buffer A) containing 0.1 mg/ml bovine serum albumin in the presence of 65-75 fmol of [^125I] iodopindolol (NEN Life Science Products) and the indicated concentrations of arrestins and agonists for 60 min at 22° C. […] Receptor-containing liposomes with bound radioligand were eluted with buffer A (between 0.6 and 1.5 ml), and radioactivity was quantitated in a liquid scintillation counter. Nonspecific binding was determined in the presence of 10 μM alprenolol. […]"}}, "data": [{"molecule": "β-arrestin-(Arg169→Glu): bovine β-arrestin mutant Arg169→Glu that reverses the charge of the putative phosphorylation-sensitive trigger (protein) MGDKGTRVFKKASPNGKLTVYLGKRDFVDHIDLVEPVDGVVLVDPEYLKERRVYVTLTCAFRYGREDLDVLGLTFRKDLFVANVQSFPPAPEDKKPLTRLQERLIKKLGEHAYPFTFEIPPNLPCSVTLQPGPEDTGKACGVDYEVKAFCAENLEEKIHKRNSVRLVIEKVQYAPERPGPQPTAETTRQFLMSDKPLHLEASLDKEIYYHGEPISVNVHVTNNTNKTVKKIKISVRQYADICLFNTAQYKCPVAMEEADDTVAPSSTFCKVYTLTPFLANNREKRGLALDGKLKHEDTNLASSTLLREGANREILGIIVSYKVKVKLVVSRGGLLGDLASSDVAVELPFTLMHPKPKEEPPHREVPEHETPVDTNLIELDTNDDDIVFEDFARQRLKGMKDDKEEEEDGTGSPRLNDR", "values": [{"measurement": "binding to activated unphosphorylated receptor", "setting": "β2AR [1]", "result": "significantly higher binding"}, {"measurement": "percentage of HAC formed by unphosphorylated β2AR", "setting": "β2AR [2]", "result": "22±4", "unit": "%"}]}]}
